Laboratory results from the Immune Epitope Database (IEDB).
One block for each sequence: values may come before it.

Columns and labels:
HLA-B*18:01 [1] = assay: IEDB peptide-MHC binding, purified MHC/competitive/fluorescence; filed as Kd, often an IC50 or EC50 that approximates it; ≥ and ≤ were set here for values at or beyond the usual limits of such assays; details: source organism: Mus musculus
HLA-A*02:01 [2] = assay: as above; details: source organism: Mus musculus
HLA-B*51:01 = assay: as above
HLA-A*26:01 = assay: as above
HLA-B*15:17 = assay: as above
HLA-B*57:01 [3] = assay: as above
HLA-A*24:03 = assay: as above
HLA-B*27:03 = assay: as above
HLA-B*39:01 = assay: as above
HLA-A*03:01 [4] = assay: as above
HLA-A*11:01 [5] = assay: IEDB peptide-MHC binding, purified MHC/direct/fluorescence; filed as Kd, often an IC50 or EC50 that approximates it; ≥ and ≤ were set here for values at or beyond the usual limits of such assays
HLA-A*31:01 [6] = assay: IEDB peptide-MHC binding, purified MHC/competitive/fluorescence; filed as Kd, often an IC50 or EC50 that approximates it; ≥ and ≤ were set here for values at or beyond the usual limits of such assays
HLA-B*15:03 = assay: IEDB peptide-MHC binding, purified MHC/competitive/radioactivity; filed as Kd, often an IC50 or EC50 that approximates it; ≥ and ≤ were set here for values at or beyond the usual limits of such assays
HLA-A*30:01 [7] = assay: as above
HLA-A*32:01 = assay: as above
HLA-B*15:01 [8] = assay: as above
HLA-B*08:01 [9] = assay: as above
HLA-A*01:01 = assay: IEDB peptide-MHC binding, purified MHC/direct/fluorescence; filed as Kd, often an IC50 or EC50 that approximates it; ≥ and ≤ were set here for values at or beyond the usual limits of such assays
HLA-A*68:02 = assay: as above
HLA-A*69:01 [10] = assay: IEDB peptide-MHC binding, purified MHC/competitive/fluorescence; filed as Kd, often an IC50 or EC50 that approximates it; ≥ and ≤ were set here for values at or beyond the usual limits of such assays; details: source organism: Orthohantavirus tulaense
HLA-B*46:01 [11] = assay: as above; details: source organism: Orthohantavirus tulaense
HLA-A*30:01 [12] = assay: as above; details: source organism: Nostoc punctiforme PCC 73102
HLA-B*48:01 = assay: IEDB peptide-MHC binding, purified MHC/direct/fluorescence; filed as Kd, often an IC50 or EC50 that approximates it; ≥ and ≤ were set here for values at or beyond the usual limits of such assays; details: source organism: Orthohantavirus seoulense
HLA-B*18:01 [13] = assay: as above; details: source organism: Orthohantavirus seoulense
HLA-A*69:01 [14] = assay: as above; details: source organism: Orthohantavirus seoulense
HLA-A*02:01 [15] = assay: as above; details: source organism: Orthohantavirus seoulense
HLA-B*44:02 = assay: as above; details: source organism: Orthohantavirus seoulense
HLA-B*40:01 = assay: as above; details: source organism: Orthohantavirus seoulense
HLA-B*57:01 [16] = assay: as above; details: source organism: Orthohantavirus seoulense
HLA-B*15:01 [17] = assay: as above; details: source organism: Orthohantavirus seoulense
HLA-A*31:01 [18] = assay: as above; details: source organism: Orthohantavirus seoulense
HLA-B*27:05 = assay: as above; details: source organism: Orthohantavirus seoulense
HLA-B*07:02 = assay: as above; details: source organism: Orthohantavirus seoulense
HLA-A*02:12 = assay: as above; details: source organism: Limestone Canyon virus
HLA-B*58:01 = assay: as above; details: source organism: Orthohantavirus seoulense
HLA-A*03:01 [19] = assay: as above; details: source organism: Orthohantavirus seoulense
HLA-B*46:01 [20] = assay: as above; details: source organism: Orthohantavirus seoulense
HLA-B*08:01 [21] = assay: as above; details: source organism: Orthohantavirus seoulense
HLA-A*68:01 = assay: IEDB peptide-MHC binding, purified MHC/competitive/radioactivity; filed as Kd, often an IC50 or EC50 that approximates it; ≥ and ≤ were set here for values at or beyond the usual limits of such assays; details: source organism: Vaccinia virus WR
HLA-A*11:01 [22] = assay: as above; details: source organism: Vaccinia virus WR
HLA-A*31:01 [23] = assay: as above; details: source organism: Vaccinia virus WR
HLA-A*03:01 [24] = assay: as above; details: source organism: Vaccinia virus WR
HLA-A*33:01 = assay: as above; details: source organism: Vaccinia virus WR
[25] = source organism: dengue virus type 1
[26] = source organism: Vaccinia virus WR
[27] = source organism: West Nile virus
[28] = source organism: Yellow fever virus
[29] = source organism: Orthohantavirus tulaense
[30] = source organism: Vaccinia virus Copenhagen
[31] = source organism: Orthohantavirus seoulense

Kd (HLA-B*18:01 [1]): ≥ 20000 nM | Kd (HLA-A*02:01 [2]): 3.7 nM | Kd (HLA-B*51:01; source organism: Mus musculus): ≥ 20000 nM | Kd (HLA-A*26:01; source organism: Mus musculus): ≥ 20000 nM | Kd (HLA-B*15:17; source organism: Mus musculus): ≥ 20000 nM | Kd (HLA-B*57:01 [3]; source organism: Mus musculus): ≥ 20000 nM | Kd (HLA-A*24:03; source organism: Mus musculus): ≥ 20000 nM | Kd (HLA-B*27:03; source organism: Mus musculus): ≥ 20000 nM | Kd (HLA-B*39:01; source organism: Mus musculus): ≥ 20000 nM | Kd (HLA-A*03:01 [4]; source organism: Mus musculus): ≥ 20000 nM
Sequence: CLVSGLSSL

Sequence: SSMVNGVVR
Kd (HLA-A*11:01 [5]; [25]): 26.1 nM | Kd (HLA-A*31:01 [6]; [25]): 18.4 nM

Kd (HLA-A*24:03; source organism: Escherichia coli str. K-12 substr. MG1655): 110 nM
Sequence: AWQRTLKWF

Sequence: KVIDIDLER
Kd (HLA-A*11:01 [5]; source organism: Mycobacterium tuberculosis): 13.9 nM | Kd (HLA-A*31:01 [6]; source organism: Mycobacterium tuberculosis C): 19.1 nM

Sequence: FSNFSTSHI
Kd (HLA-B*15:03; [26]): 510 nM | Kd (HLA-A*30:01 [7]; [26]): 7500 nM | Kd (HLA-A*32:01; [26]): 18400 nM | Kd (HLA-B*15:01 [8]; [26]): 110 nM | Kd (HLA-B*08:01 [9]; [26]): 3110 nM

Sequence: LSTTRFQSM
Kd (HLA-B*15:03; [26]): 2500 nM | Kd (HLA-A*30:01 [7]; [26]): 1080 nM | Kd (HLA-A*32:01; [26]): 9770 nM | Kd (HLA-B*15:01 [8]; [26]): 5820 nM | Kd (HLA-B*08:01 [9]; [26]): 3970 nM

Sequence: VLWDTPSPK
Kd (HLA-A*11:01 [5]; [27]): 4.5 nM | Kd (HLA-A*31:01 [6]; [27]): 33.9 nM

Sequence: ALNTITNLK
Kd (HLA-A*11:01 [5]; [28]): 8.6 nM | Kd (HLA-A*31:01 [6]; [28]): 41.4 nM

Sequence: LMYILGTYG
Kd (HLA-B*15:03; [26]): 125 nM | Kd (HLA-A*30:01 [7]; [26]): 3750 nM | Kd (HLA-A*32:01; [26]): ≥ 23300 nM | Kd (HLA-B*15:01 [8]; [26]): 62 nM | Kd (HLA-B*08:01 [9]; [26]): 951 nM

Sequence: FMSRKLHRY
Kd (HLA-A*01:01; source organism: Orthohantavirus negraense): 9.5 nM | Kd (HLA-A*68:02; [29]): ≥ 20000 nM | Kd (HLA-A*69:01 [10]): ≥ 20000 nM | Kd (HLA-B*51:01; [29]): ≥ 20000 nM | Kd (HLA-A*26:01; [29]): ≥ 20000 nM | Kd (HLA-B*15:17; [29]): ≥ 20000 nM | Kd (HLA-B*57:01 [3]; [29]): ≥ 20000 nM | Kd (HLA-B*27:03; [29]): ≥ 20000 nM | Kd (HLA-B*39:01; [29]): ≥ 20000 nM | Kd (HLA-A*03:01 [4]; [29]): 8000 nM | Kd (HLA-B*46:01 [11]): ≥ 20000 nM

Sequence: KTMAVTYEL
Kd (HLA-B*15:03; [30]): 34.5 nM | Kd (HLA-A*30:01 [7]; [30]): 10900 nM | Kd (HLA-A*32:01; [30]): 0.578 nM | Kd (HLA-B*15:01 [8]; [30]): 5.51 nM | Kd (HLA-B*08:01 [9]; [30]): 18.7 nM

Kd (HLA-A*30:01 [12]): ≥ 20000 nM | Kd (HLA-A*24:03; source organism: Nostoc punctiforme PCC 73102): 3.9 nM
Sequence: WFSSGLWPF

Sequence: KPKHLYVSM
Kd (HLA-B*48:01): ≥ 20000 nM | Kd (HLA-B*18:01 [13]): ≥ 20000 nM | Kd (HLA-A*69:01 [14]): ≥ 20000 nM | Kd (HLA-A*02:01 [15]): ≥ 20000 nM | Kd (HLA-B*44:02): ≥ 20000 nM | Kd (HLA-B*40:01): ≥ 20000 nM | Kd (HLA-B*57:01 [16]): ≥ 20000 nM | Kd (HLA-B*15:01 [17]): ≥ 20000 nM | Kd (HLA-A*11:01 [5]; [31]): ≥ 20000 nM | Kd (HLA-A*31:01 [18]): ≥ 20000 nM | Kd (HLA-B*27:05): ≥ 20000 nM | Kd (HLA-B*07:02): 84.4 nM | Kd (HLA-A*02:12): ≥ 20000 nM | Kd (HLA-A*01:01; [31]): ≥ 20000 nM | Kd (HLA-B*58:01): ≥ 20000 nM | Kd (HLA-A*68:02; source organism: Limestone Canyon virus): ≥ 20000 nM | Kd (HLA-A*03:01 [19]): ≥ 20000 nM | Kd (HLA-B*46:01 [20]): ≥ 20000 nM | Kd (HLA-B*08:01 [21]): 254 nM | Kd (HLA-B*51:01; [31]): ≥ 20000 nM | Kd (HLA-A*26:01; [31]): ≥ 20000 nM | Kd (HLA-B*15:17; [31]): ≥ 20000 nM | Kd (HLA-B*27:03; [31]): ≥ 20000 nM | Kd (HLA-B*39:01; [31]): ≥ 20000 nM

Sequence: ISWMMKLGI
Kd (HLA-B*15:03; [26]): 404 nM | Kd (HLA-A*30:01 [7]; [26]): 6580 nM | Kd (HLA-A*32:01; [26]): 42.1 nM | Kd (HLA-B*15:01 [8]; [26]): 546 nM | Kd (HLA-B*08:01 [9]; [26]): 4840 nM

Sequence: FSIYSVSCF
Kd (HLA-B*15:03; [30]): 7.64 nM | Kd (HLA-B*15:01 [8]; [30]): 3.1 nM

Sequence: KAFNHASVK
Kd (HLA-B*15:03; [26]): 282 nM | Kd (HLA-A*30:01 [7]; [26]): 34.7 nM | Kd (HLA-A*32:01; [26]): 3640 nM | Kd (HLA-A*68:01): 17.6 nM | Kd (HLA-B*15:01 [8]; [26]): 462 nM | Kd (HLA-A*11:01 [22]): 9.31 nM | Kd (HLA-A*31:01 [23]): 29.7 nM | Kd (HLA-A*03:01 [24]): 6.13 nM | Kd (HLA-B*08:01 [9]; [26]): 751 nM | Kd (HLA-A*33:01): ≥ 47700 nM

Sequence: RQYMFYKIF
Kd (HLA-B*15:03; [30]): 0.0698 nM | Kd (HLA-A*32:01; [30]): 19.3 nM
